Assay: yeast display, Sf9 membrane polyspecificity reagent, FACS + sequencing; frameworks hold sequencing errors
Outline: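 Galactose induction of a Saccharomyces cerevisiae BJ5465 synthetic nanobody display library ran 36–48 hours. The cells were then stained for 1 hour at 4 °C with 10% biotinylated, detergent-solubilized Sf9 membrane reagent, pulled down on streptavidin microbeads and FACS-sorted into low and high (top ~1%) gates on expression and reagent-binding fluorescence. Labels for polyreactivity follow the gate of origin.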

## QVQLVESGGGLVQAGGSLRLSCAASGFNFPGNAIGWYTPAPGKERELVATISSGGSTKYADSVKGRFTISRDNAKNTVYLQMNSLKPEDTAVYYFAARVYLGVFDYYYWGQGTQVTVSS
  polyreactivity (PSR sort gate): low polyreactivity

## QVQLVESGGGLVHAGGSHRLSCAASGIIVYVNAMGLYRQAPGKERELVSAITFGGDSTYYADSVKGRFTISRDTAKNTVYLQMNSLKPEDTAVYFCATDGDPAYPELEYWGQGTQVTVSS
  polyreactivity (PSR sort gate): low polyreactivity

## QVQLVESGGGLVQAGGSLRVSCAASGLTFSVYTRGWYRQAPGKERELVAAITTSGGRTYYADSVKGRFTISRDNAKNTVYLQMNSLKPEDTAVYYCAAVRTGDTTGTMGYWGQGTQVTVSS
  polyreactivity (PSR sort gate): high polyreactivity

## QVKLVESGGGLVQAGGSLRLTCAASGRIFEDYVMGWYIKAPGKERELVAGISGSGGITYYADSVKGRFTISRDNAKNTVYLQMNSLKPEDTAVYYCATAAASHKYGYWGQGTQVTVSS
  polyreactivity (PSR sort gate): low polyreactivity

## QVQLVESGGGLVQAGGSLRLSCAASGRTFSYNAMGWYRQAPGKERELVATISWGGGSTYYADSVKGRFTISRDNAKNTVYLQMNSQKPEDTAVFYCARVGWYAYLIDRDYWGQGSQVTVSS
  polyreactivity (PSR sort gate): high polyreactivity

## QVQLVESGGGLVQEGGSLRLSCAASGSIYGWDAMGWYRQAPGQEREYVAAIDYSDGGRTYSADSVKGRFTISRDPAKNTVYLQMNSLKPADTAVYYCAAGYVYPHYFIDEYWGQGTQVTVSS
  polyreactivity (PSR sort gate): high polyreactivity

## QVQLVESGGGLVQAGGSLRLSCAASGRIYRYAMGWYRQAPGKERELVAAISGGGGRTYYADSVKGRFTISRDNAKNTFYLQLNSLKPEVTAVYDCAVDPYFYYYGDYYFDYWGQGTQVTVSS
  polyreactivity (PSR sort gate): high polyreactivity

## QVQLVESAGGLVQAGGSLRLSCAASGIIFRPNPLGWYRQAPGKERELVAAISKRGGSTYYADSVKGRFTISRDNAKNTVYLQMNSLKPEDTAVYYCAKRQQQSSGYDYWGQGTQVTVSS
  polyreactivity (PSR sort gate): high polyreactivity

## QVQLVESGGGLVQAGGSLRLSCAASGLIFVYYTMGWYRQAPGKERELVAAIRSGGGTNYADSVKGRFTISRDNAKNTVYFQMNSLKPEDTAVYYCAASIRSYAYGGRKYNYWGQGSQVTVSS
  polyreactivity (PSR sort gate): high polyreactivity

## QVQLVESGGGLVQAGGSLRLSCAASGSTFLTNVMGWYRQAPGKEREFVAAITANGGRTYYADSVKGRFTISRDNAKKTVYLKMNSQKPEDTAVYYAVETAWSYNSIYWFDYWGQGTQVTVSS
  polyreactivity (PSR sort gate): high polyreactivity

## QVQLVESGGGLVQAGVSLRLSCAASGSTFGWYAMGWYRQAPGKERELVAAISASGGSTYYADSVKGRFTISRDNAKNNVYLQMNSLKPEDTAVYYCAVRAWKFLTRYDYWGQGTKVTVSS
  polyreactivity (PSR sort gate): high polyreactivity

## QVQLVESGGGLVQAGGSLRLSCAASGSIFRRNAMGWYRQAPGKERELVAAISYSGGSTYYADSVKGRFTISRDNAKNTVYLQMNSLKPEDTAVYYCAADLYYGFGGYYYWGQGTQVTVSS
  polyreactivity (PSR sort gate): high polyreactivity

## QVQLVESGGGLVQAGGSLRLSCAASGSIFWPYTMGWYRQAPGKEWELVAAITSTDSTDYADSVKGRFTISRDNAKNTVYLQMNSLKPEDTAVYYCNADYQSRTGSVIYTAHPYDYWGQGTQVTVSS
  polyreactivity (PSR sort gate): low polyreactivity

## QVQVVESGGGLVQAGGSLRLSCAASGFTFPYYALGLYRQAPGKERELVAAITTGGSTYYSDSVKGRFTISRDNAKNTVYLQMNSLKPEDTAVYYCATGPSLWYRSSFRGEGDYWGQGTQVTVSS
  polyreactivity (PSR sort gate): low polyreactivity

## QVQLVESGGGLVQAGGSLRLSCAASGRIYINNAMGWYRQAPGKDREFVAAITSGGRTYYADSVKGRFTISRDNAKYTVYLQMNSLKPEDTAVYYCAPRYYRQYTRHYGYGYWGQGTQVTVSS
  polyreactivity (PSR sort gate): high polyreactivity

## QVQLVESGGGLVQAGGSLRLSCAASGRIMPFYAMGWYRQAPGKERELVATISWTSDSTYYADSVKGRFTISRDNAKNTVFLQMNSLKPEDTAVYYCAREYTYTYASTVIYDHWGQGTQVTVSS
  polyreactivity (PSR sort gate): low polyreactivity

## QVQLVESGGGLVQAGGSLRLSCAASGRTILGYTMGWYRQAPGKESEFVAAITFSGDSTYYADSVKGRFTISRDKAKNTVYLQMNSLKPEDTAVYYCAAAIPRFSAGHYDYWGQGTQVTVSS
  polyreactivity (PSR sort gate): high polyreactivity

## QVQLVESGGGLVQAGGSLRISCAASGRIFANYAMGWYRQAPGKEMELVAAITTNGGGTYYADSVKVRFTISRDNAKNTVYLQMKSLIPEDTAVYYCIAVKQRSSIFDYWGQGTQLTVSS
  polyreactivity (PSR sort gate): low polyreactivity

## QVQLVESGGGLVQAGGSLRLSCAASGRTFRYYALGWYRQAHGKERELVPRITRGATTNYADSVKGRFTISRDNAKNTVYLQMNSLKPEDTAVYYCAVTPLYGSDRRGWFSSDYWGQGTHVTVSS
  polyreactivity (PSR sort gate): high polyreactivity

## QVQLVESGGGLVQAGASLRLSCDASGLTFGYYAMGWYRQAPGKERELVAAINRSGNTNYADSVKGRFTISRDNAKNTVYLQMNSLKPEDTAVYYCAKRIWSILSPYKSSYGYDYWGQGTQVTVSS
  polyreactivity (PSR sort gate): low polyreactivity

## QVQLVESGGGLVQAGGSLRLSCAASGRILYVYVMGWYRQGPGKASELVAAISRRGGGTSYADSVKGLFTISRDNAKNTVYLQLNSLKPEDTTVYYCAASSTEFPTDYLAIDDYWGQGTQVTVSS
  polyreactivity (PSR sort gate): low polyreactivity

## QVHLVESGGGLVQAGGSLRISCAASGSTFYYYTMGWYRQAPGKERELVAISWDGDSTYYADSVKGRFTISRDNAKNTVYLQMNSLKPEDTAVYYFNAEYTWSGTKIYTYKYDFWGPGTQVTVSS
  polyreactivity (PSR sort gate): low polyreactivity

## QVQLVESGGGLVQAGGSLRLSCAASGITLGAYAMGWYRQAPGKERELVAAISRSGGSTYYADSVKGRFTISRDNAKNTVYLQMNSLKPEDTAVYYCNAPRFVSYDYWGQGTQVTVSS
  polyreactivity (PSR sort gate): high polyreactivity

## QVQLVESGGGLVQAGGSLRLSCAASGSTFGGYAMGWYRQAPGKERELVATITGGGSTNYADSVKGRFTISRDNAKNTVYLQMNSLKPEDTAVYYCAATEKYQYKVFYDPVGAYDYWGQGTQVTVSS
  polyreactivity (PSR sort gate): low polyreactivity

## QVQLVESGGGLVQAGGSLRLSCAASGSIFYPNAMGWYRQAPGKERELVAAITTGGSTNYADSVKGRFTISRDNAKNTVYLQMNSLKPEDTAVYYCNARHRYHSYTQPRWKYDYWGQGTQVTVSS
  polyreactivity (PSR sort gate): low polyreactivity

## QVHLVESGGGLVQAGGSLRLSCAASGRIYKYNAMGWYRQAPGKERELVAAISSGGSTNYADSVKGRFTISRDNAKNTVYLQMNSLKPEDTAVYYCAADGTRVSSFHYLVWLGYWGQGTQVTVSS
  polyreactivity (PSR sort gate): low polyreactivity

## QVQLVESGGGLVQAGGSLRLSCAASGSNFPINAMGWYRQAPGKERELVAAISWRTGSTNYADSVKGRFTISRDNAMNTVYVQMNSLKPEDTAVFYCAASYATTRQRWLDYWGQGTQVTVSS
  polyreactivity (PSR sort gate): high polyreactivity

## QVQLVESGGGLVQAGGSLRLSCAASGSTLQSYAMGWYSQAPGKERELVAGIRISGGNTRYADSVKGRFTISRDNAKNTVYLQMNSLKPEDTAVYYCAALTGFYNLRPYGYWGQGTQVTVSS
  polyreactivity (PSR sort gate): high polyreactivity

## QVQLVESGGGLVQAGGSLRLSCAASGFTFDSYAMGWYRQAPGKERELVAAITSSGGRTYYADSVKGRFTISRDNAKNTVYLQMNSLKPEDTSVYYCAARAISNFGYWGQGTQVTVSS
  polyreactivity (PSR sort gate): high polyreactivity

## QVQLVESGGGLVQAGGSLRLSCAASGGTLKYYAMGLYRQAPGKERELVATISSRGGSTYYADSVKGRFTISRDNAKNTVYLQMNSLKPEDTAVYYCARRYWVQSRYPELDYWGQGTQVTVSS
  polyreactivity (PSR sort gate): high polyreactivity

## QVQLVESGGGLVQAGGSLRLSCAASGSTFGWYAMGWYRQAPGKERELVAAISYIGGSTYADSVKGRFTISRDNAKNTVYLQMKSLKPEDTAVYYCNAVVYGKSYGSRIYDYWGQGTQVTVSS
  polyreactivity (PSR sort gate): high polyreactivity

## QVQLVESGGGLVQAGGSLRLSCAASGLIFDYYAMGWYRQAPGKERELVAAISSGGDTTYADSVKGRFTISRDNAKNTVYLQMNSLKPEDTAVYYCAADRWIPVYILGADGYDYWGQGTQVTVSS
  polyreactivity (PSR sort gate): low polyreactivity

## QVQLVESGGGLVQAGGSLRLSCAASGSTSDENAMGWYRQAPGKERELVASITVSGGSTSYADSVKGRFTISRDNAKNTVYLQMNSLKPEDTAVYYCNTDFGQAHTLSWYEDMDYWGQGTQVTVSS
  polyreactivity (PSR sort gate): low polyreactivity

## QVQLVESGGGLVQAGGSLRLSCAASGSIFDSNAMGWYRQAPGKERELVAAITGSGSTNYADSVKGRFTISRDNAKNTVYLQMNSLKPEDTAVYYCNAQAPYTEFDYWGQGTQVTVSS
  polyreactivity (PSR sort gate): low polyreactivity

## QDQLVESWGGLVQAGGSLRLSCAASGFTFNKYAMGWYRQAPGKERELVAAISSSGGRTSYADSVKGRFTISRDNAKNTVYLQMNSLKPEDTAVYYCNKVSTADMGYWGHGTQVTVSS
  polyreactivity (PSR sort gate): high polyreactivity

## QVQLVESGGGLVQAGGSLRLSCAASGSIFFLYAMGWYRQAPGKERELVAAISGGGGSTYYADSVKGRFTISRDNAKNTVYLQMNSLKPEDTAVYYCDALSKTRGGYWGQGTQVTVSS
  polyreactivity (PSR sort gate): high polyreactivity

## QVQLVESGGGLVQAGGSLRLSCAASGRIFARNAMGWSRQAPGKERELVAAISGGGNTYADSVKGRFTISRDNAKNTVYLQMNSLKPEDTAVYYCARVVHFRGVRYDYWGQGTQVTVSS
  polyreactivity (PSR sort gate): high polyreactivity

## QVQLVETGGGLVQAGGSLRLSCAASGRTFLDYTMGWYRQAPGKERELVAAIRTSAGSTYYADSVKGRFTISRDNAKNTVYLQMNSLKPEDTAVYYCAKRQRGYFYEYYLYYSWGQGTQVTVSS
  polyreactivity (PSR sort gate): low polyreactivity

## QVQLVESGGGLVQAGGSLRLSCAASGLTFEYNAMGWYRQAPGKERELVAAITSGDNTYYADSVKGRITISRDNAKNTVYLQMNSLKPEDTAVYYCAKYRWNWRYVSRGDSWGQGTQVTVSS
  polyreactivity (PSR sort gate): high polyreactivity

## QVQLVESGGGLVQAGGSLRLSCAASVSTFVVNAMGWYRQAPGKERELVAAISRSDAITYYADSVKGRFTISRDNAKNTVYLQMNSLKPEDTAVYYCAAELSYRGYPYDYWGQGTQVTVSS
  polyreactivity (PSR sort gate): high polyreactivity

## QVQLVESGGGLVQAGGSLRLSCAASGRIFSYYAMGWYRQAPGKERELVAAISNGGNTYYADSVKGRFTISRDNAKNTVYLQMNSLKPEDTAVYYCYVRRYDYWGQGTQVTVSS
  polyreactivity (PSR sort gate): high polyreactivity

## QVQLVESGGGLVQAAGSLRLSCAASGRTFHWYVMGWYRQAPGKESELDAAITRRGGSTYYADSVKGRFTISRDNAKNTVYLQLNSLKPEDTAVYYCAAVGNRRYYFGYDYWGQGTQVTVSS
  polyreactivity (PSR sort gate): high polyreactivity

## QVQLVESCGGLVQAGGSLRLSCAASGFIFQPYAMGWYRQAPGTERELVAAITSRGGRTYYADSVKGRFTISRDNAKNTVYLQMNSLKPEDTAVYSCNAVIYACEYYYWGQGTQVTVSS
  polyreactivity (PSR sort gate): low polyreactivity
